Measurements from patent publication US20190284289A1 (Eli Lilly, published 2019).

Assays:
[1] = target: T1, human RANKL (human, UniProt O14788 158-317, limits assumed); assay: cell-based or functional assay
T1 sequence: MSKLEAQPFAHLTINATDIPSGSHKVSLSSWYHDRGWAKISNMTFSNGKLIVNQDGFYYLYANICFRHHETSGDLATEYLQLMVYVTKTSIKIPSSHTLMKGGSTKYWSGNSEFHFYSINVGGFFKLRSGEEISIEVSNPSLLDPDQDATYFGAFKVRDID

[2] = target: T2, rat RANKL (rat, UniProt Q9ESE2 141-318, limits assumed); assay: SPR (BIAcore 2000), antibody captured on Protein A, RANKL as analyte, 25 C; rat RANKL
T2 construct: Construct not described
T2 sequence (looked up): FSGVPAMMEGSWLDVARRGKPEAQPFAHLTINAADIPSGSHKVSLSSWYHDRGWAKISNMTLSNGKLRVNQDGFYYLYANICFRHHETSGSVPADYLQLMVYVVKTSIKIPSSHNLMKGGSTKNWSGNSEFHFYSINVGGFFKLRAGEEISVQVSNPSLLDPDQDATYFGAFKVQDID

[3] = target: T1, human RANKL; assay: SPR (BIAcore 2000), antibody captured on Protein A, RANKL as analyte, 25 C; human RANKL
Method: The BIAcore® 2000 instrument is used to measure binding affinity. All measurements are performed at 25° C. 2 ug/mL of exemplified antibody of Example 1 is dissolved in HBS-EP buffer (150 mM sodium chloride, 3 mM EDTA, 0.005% (w/v) surfactant P-20, and 10 mM HEPES, pH7.4). Protein A is immobilized on flow cells 1 to 4 of a CM4 sensor chip at a level of 500 response units (Rus) using an amine coupling kit.
Binding is evaluated using multiple analytical cycles. Each cycle is performed at a flow rate of 20 uL/minute. About 10 uL of the exemplified antibody of Example 1, at a concentration of 2 ug/mL, is injected, aiming to capture about 100-200Rus; 250 uL of human RANKL (starting at 5 nM and using two-fold serial dilutions for each cycle) is injected, ten minutes is given for dissociation, and 10 uL of 10 mM glycine hydrochloride, pH 1.5 is used for regeneration. Association and dissociation rates for each cycle are evaluated using a “1:1 with mass transfer” binding model in the BIAevaluation software.

[4] = target: T3, mouse RANKL (mouse, UniProt O35235 158-316, limits assumed); assay: SPR (BIAcore 2000), antibody captured on Protein A, RANKL as analyte, 25 C; mouse RANKL
T3 construct: Construct not described; also called murine RANKL
T3 sequence (looked up): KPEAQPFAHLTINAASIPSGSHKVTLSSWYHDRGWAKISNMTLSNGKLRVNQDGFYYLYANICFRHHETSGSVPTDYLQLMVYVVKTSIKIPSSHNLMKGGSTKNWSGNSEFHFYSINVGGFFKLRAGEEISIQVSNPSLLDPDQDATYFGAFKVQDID

IC50, neutralization of human RANKL induced NF-kB driven luciferase luminescence in HEK293 cells expressing human RANK [1]: 0.069 nM
Kd [2]: 0.0344 nM
Kd [3]: 0.00282 nM
Kd [4]: 0.00664 nM
B1: exemplified antibody of Example 1 (antibody, human IgG4 S228P, kappa, F234A L235A, V domains shown)
VH: QVQLVQSGAEVKKPGSSVKVSCKASGYAFTNYYIEWVRQAPGQGLEWMGVINPGWGDTNYNEKFKGRVTITADKSTSTAYMELSSLRSEDTAVYYCARRDTAHGYYALDPWGQGTTVTVSS
VL: DIQMTQSPSSLSASVGDRVTITCKASQNVGTNVAWYQQKPGKAPKLLIYSASYRYSGVPSRFSGSGSGTDFTLTISSLQPEDFATYYCQQYWDYPLTFGGGTKVEIKR
notes: also called the antibody; anti-RANKL antibody
